In the nanobody polyreactivity screen of Harvey et al. (2022):

Experiment: yeast display, Sf9 membrane polyspecificity reagent, FACS + sequencing; frameworks hold sequencing errors
Summary of the method: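 Using colony PCR, genes from sorted yeast display clones were amplified, then sequenced on MiSeq at 2 × 250 and filtered by CDR length. The clones had been stained with 10% biotinylated, detergent-solubilized Sf9 membrane reagent for 1 hour at 4 °C and sorted by FACS into low and high (top ~1%) gates on anti-HA and streptavidin fluorescence. Polyreactivity labels come from the gate of origin.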

Row | Sequence | polyreactivity (PSR sort gate)
1 | QVQLVESGGGLVQAGGSLRLSCAASGTFGVYAMGWYRQAPGKERELVAVITDSGGTNYADSVKGRFTISRDNAKNTVYLQMNSLKPEDTAVYYCNTDAGDYYGENYWGQGTQVTVSS | low polyreactivity
2 | QDQLVESGGGLVQAGGSLRLSCAASGIIFSIYAMGWYRQAPGKERELVAVISRSSGSTYYADSVKGRFTISRDNAKNSVYLQMNSLKPEDTAVYYCAARKNRAYGYWGQGTQVTVSS | high polyreactivity
3 | QVQLVESGGGLVQAGGSLRLSCAASGIIFFWNAMGWYRQAPGKERELVAAISEDGGGTYYADSVKGRFTISRDNAKNTVYLQMNSLKPEDTAVYYCNTDTSPQIVTRRSFDDYWGQGTQVTVSS | low polyreactivity
4 | QVQLVESGGGLVQAGGSLRLSCAASGRIIAVYAMGWYRQAPGKERELVATIRGGGSTNYADSVKGRFTISRDNAKNTVYLQMNSLKPEDTAVYYCAALGGRYRASTYGYWGQGTQVTVSS | high polyreactivity
5 | QVQLEESGGGLVQAGGSLRLSCAASGLILRTYGMGWYRQAPGKERELVAVISSGGSTYYADSVKGRFTISRDNAKNTVYLQMNSLKPEDTAVYYCAVRSSWYEGDYWGQGTQVTVSS | low polyreactivity
6 | QVQLVESGGGLVQAGGSLRLSCAASGLTLSYNAMGWYRQAPGKERELVAAIRSGGSTNYADSVKGRFTISRDNAKNTVYLQMNSLKPEDTAVYYCAARFRYLPYRYGRYQSGYEYWGQGTQVTVSS | high polyreactivity
7 | QVQLVESGGGLVQAGGSLRLSCAASGSSFYTNAMGWYTQAPGKERELVAAISSSGDSTYYADSVKGRFTISRDNANNTVYLQMNSLKPEDTGVYYCNADRRSYNGFRYYYWGQGTQVTVSS | low polyreactivity
8 | QVQLVESGGGLVQAAGSLRLSCAASGNTFRWYVMGWYRQAPGKERELVAAITSSGSNTYYADSVKGRFTISRDNAKNTVYLQMNSLKPEDTAVYYCAARNYGPYDYWGQGTQVTVSS | low polyreactivity
9 | QVQIVDSGVGLVQAGGSLRLSCAASGSTFLKNAMGWYRQAPGKERELVAAISYSTTPTYYADSVKGRFTFSRDNAKNTVYLQMNSLKPEDNAVYYCNIASYWGSGFDFWGLGTQVTVSS | low polyreactivity
10 | QVQLVESGGGLVQAGGRHRLSCAASGFIFHVYAMGWYRQAPGKERELVAAISSGGSTYYADSVKGRFTISRDNAKNTVYLQMNSLKPEDTAVYYCNGARSRYRYRYDYWGQGTQVTVSS | high polyreactivity
11 | QVQLVESGGGLVQAVGSLRLSCDATGSTLHKNTMGWYRQAPAKERELVAAISRRGGSTYYADSVKGRFTISRDNAKITVYLQMNSLKPEDTAVYYCATEGYDGEFDYWGQGTQVTVSS | high polyreactivity
12 | QVQLVESGGGLVQAGGSLRLSCAASGLTFSKYVMGWYRQAPGKERELVAAITWSGGRTYYADSVKGRFTISRDNAKNTVYLLMNSLKPEDTAVYYCNRKLKGLGYEYDYWGQGTQVTVSS | high polyreactivity
13 | QVQLVETGGGLVQAGGSLRLSCAASGITIRPYTMGWYRQAPGKERELVARISRRGGSTYYADSVKGRFTISRDNAKNTVYLQMNSLKPEDTAVYYCATRSRAHISPYDYWGQGTQVTVSS | high polyreactivity
14 | QVQLVESGGGLVQAGGSLRLSCAASGSIFFRNAMGWYRQAPGKERELVAAITFSGGRTYYADSVKGRFTISRDTANNTVYLQMNSMKPEDTAVYYCAGRRSYTYARYDYWGQGTQVTVSS | high polyreactivity
15 | QVQLVESGGGLVQAGGSLRLSCAASGNTFTWYTMGWYRQAPGKERELVAVMTSDGSTYYADSVKGRFTISRDNAKNTVSFQMNSLKPEDTAVYYCNRGVFDTFYYYPQVGFGYWGQGTQVTVSS | low polyreactivity
16 | QVQLVESGGGLVQAGGSLRLSCAASGSIFQIVYAMGWYRQAPGKERELVAAISRGGSTYYADSVKGRFTISRDNAKNTVYLQMNSLKPEDTAVYYCAADIVELSPRGVYHFDYWGQGTQVTVSS | high polyreactivity
17 | QVQLVESGGGLVQAGGSLRLSCAASGRTFGFYAMGWYRQAPGKERELVATISSSGGSTYYADSVKGRFTISRDNAKNTVYLQMNSLKPEDTAVYYCAADYLDSTYGYVYGWDDYWGQGTQVTVSS | low polyreactivity
18 | QVQLVESGGGLVQAGGSLRLSCAASGRTFRRNAMGWYRQAPGKERELVAAIRWSSGSTYYADSVKRRFTISRDNAKNTVYLQMNSLKPEDTAVYYCAKRQWGGRESFDYWAQGTQVTVSS | low polyreactivity
19 | QVQLVESGGGLVQAGGSLRLSCAASGSIFENYAMGWYRQAPGKERELVAAISSSGDSTYYADSVKGRFTISRDNAKNTVYLQMNSLKPEDTAVYYCAAEISLSRSDRIESYDYWGQGTQVTVSS | low polyreactivity
20 | QVQLVESGGGLVQAGGSLRLSCAASGFISYYYAMGWYRQAPGKEREFVAAITSSGGSTRYADSVKGRFTISRDNAKNTVYLQMNSLKPEDTAVYYCAAGNPYFWPYDYWGQGTQVTVSS | low polyreactivity
21 | QGQLVESGGGLVQAGCSLRLSCAASGSNFYYKAMGWYRQAPRKERELVARISRSGGSTYADSVKGRFTISRDNAKNTVYLQMNSLKPEDTAVYYCNADAYGTPEFTPYSVRYDYWGQGTQVTVSS | low polyreactivity
22 | QVQLVESGGGLVQAGGSLRLSCAASGSIFFRYATMGWYRHAPGKESELVAAISRSGGSTYYADSVKGRFTISRDNGKNTVYLQMNSLKPEDTAVYYCAKVSPSLRASGYDYWGQGTQLTVSS | high polyreactivity

Row | Sequence | polyreactivity (PSR sort gate)
23 | QVQLVESGGGLVQAGGSLRLSCAASGSIFEFNTMGWYRQAPGKERELVAAISSSGGRTYYADSVKGRFTISRDNAKNSVYLQMNSLKPEDTAVYYCNARRFVHNPDYDYWGQGTQVTVSS | high polyreactivity
24 | QVQLVESGGGLVQAGGSLRLSCAASGSTFWVYTMGWYRQAPGKEREFVAAISSGVGSTHYADSVKGRFTLSRDNAKNTVYLNMNSLKPEDTAVYYCAAESYYVYLGWLEYWGQGTQVTVSS | high polyreactivity
25 | QVQLVESGGGLVQEGGSLRLNCAASGSTFWGNAMGWYRQPPGKDRELVAAISTSDTSTYYADSVKGRFTISRDNAKNTVYLQMNSLKPEDTAVYFCAAEWYYGEKYDYWGQGTQVTVSS | low polyreactivity
26 | QFQLVESGGGLVQAGGSLRLSCAASGRTSLGYDMRWYRQAPGKERELVAAITRSGGYTYYADSVKGRFTISRDNAKNTVYLQMNSLKPEDTAVYYCAAYWRYSGYYYWGQGTQVTVSS | low polyreactivity
27 | QVQLVESGGGLVQAGGSLRLSCAASGYIFDRNSMGWYRQAPGKERELVAAITKRGGITYYADSVKGRFTISRDNAKNTVYLQMNSLKPEDTAVYYCNALARSSRYDYWGQGTQVTVSS | high polyreactivity
28 | QVQLVESGGGLVQAGGSLRLSCAASGSNFSRYAMGWYRQAPGKERDLVAAITSTGDSTSYADSVKGRFTISRDNAKNTVYVQMNSLKPEDTAVYYCAIVYVYRYVIPYDYWGQGTQVTVSS | low polyreactivity
29 | QVQLVESGGGLDQAGGRLRLSCAASGSTFSYYAKSWYIQAPGKERELVARITWRGGSTNYADSVKGRFTISRDNAKNTVYLQMNSLKPEDTAVYYCATKLTSRVPFDYWGQGTQVTVSS | high polyreactivity
30 | QVQLVESGGGLVQAGGSLRLSCAASGSIFSYYAMGWYRQAPGKERELVAGITWSGGRTYYADSVKGRFTISRDHAQNTVYLQMNSLKPEDTAVYYCAAVQWFSRRSRYDYWGQGTQVTVSS | high polyreactivity
31 | QVQLVESGGGLVHAGGSLRLSCAASGFTIRSYVMGWYRQAPGKERELVAAIRRSGGSTYYADSVKGRFTISRDNAKNTVYLQMNCLKPEDTAVYYCNADIRAYTVLTGGYIYDYWGQGTQVTVSS | high polyreactivity
32 | QVQLVESGGGLVQAGGRLRLSCAASGSIFDENTMGWYRQAPGKERELVAAITYSGTSTYYADTVKGRFTISRDNAKNTVYLQMNSLKPEDTAVYYCAAEQWRYDGSFTGYGYWGQGTQVTVSS | low polyreactivity
33 | QVQLVESGGGLVQAGGSLRLSCAASGSIFGRYAMGWYRQAPGKERELVAAISWRGGSTYYADSVKGRFTISRDNAKNTVYLQMNRLKPEDTAVYYCAKSGTFYYPRYDYWGQGTQVTVSS | high polyreactivity
34 | QFQLVESGGGLVQAGGSLLLSCAASGTFGVYAMGWYRQAPGKERELVAVITDSGGTNYADSVKGRFTISRDNAKNTVFLQMNSLKPEDTAVYYCNTDAGDYYGENYWGQGTQVTVSS | low polyreactivity
35 | QVQLVESGGGLVQAGGSLRLSCAASGFTFQYYAMGWYRQAPVKERELVAAINWSGGRTYYADSVKGRFTISRDNAKNTVYLQMNSLKPEDTAVYYCAAPRSFSGGYGYVSYDYWGQGTQVTVSS | high polyreactivity
36 | QDQLVESGGGLVQAGGSLRLSCAASGRILTKYAMGWYRQAPGKERELVAAISDSGTGTYYADSVKGRFTISRDNAKNTVYLQMNSLKPEDTAVYYCNAQTRRTRTYHGHKYGYWGQGTQVTVSS | high polyreactivity
37 | QVQLVESGGGLVQAGGSLRLSCAASGRILRHNAMGWYRQAPGKERELVAAITRSGGRTYYADSVKGRFTISRDNAKNTVYLQMNSLKPEDTAVYDCAAGDYGWVPYNLRGSRMNYWGQGTQVTVSS | high polyreactivity
38 | QFQLVESGGCLVQAGGSLRLSCAASGFTFGYNAMGWYRQAPGKERELVAVITQSGGRTYYADSVKGRFTISRDNAKYTVYVQMNSLKPEDTAVYYCADRYRLPPYYYWGQGSQVTVSS | high polyreactivity
39 | QVQLVESGGGLVQAGGSLRLSCAASGSILIYNAMGWYRQAPGKERELVAGISRRGASTYYADSVKGRFTISRDNAKNTVYLQMNSLKPEDTAVYYCAALGKYIVAWSGDYWGHGTQVTVSS | low polyreactivity
40 | QVQLVESGGCLVQAGGSLRLSCAASGLTLDQYALGWYRQAPGKEREFVAAISYSGGNTYYADSVKGRFTISRDNAKYTVYLQMNSLKPEDTAVYYCAAYYFYFYHKVIWYELDYWGQGTQVTVSS | low polyreactivity
41 | QVQLVESGGGLVQEGGSLRLSCAASGRIFNTNAMGWSRQAPGKERELVAGITDSGDSTYDADSVKGRFTISRDNAKNTVYLQMYSLKPEDTGVYYCATDPASPYIYDYWGQGTQVTVSS | low polyreactivity
42 | QVQLVESGGGLVQAGGSLRLSCADSGFTFTYYTMGWYRQAPGKERELVAAISGSGGSTYYADSVKGRFTISRDNAKYTVYLQMNSQKPEDSAVYYCAARSRWQSYRLKNHGTYKHDYWGQGTQVTVSS | high polyreactivity
43 | QVQLVESGGGLVQAGGSLRLSCAASGSTFIVNAMGWYRQAPGKERELVAAITGGGGSTYYADSVKGRFTISRDNAKNTVYLQMNSLKPEDTAVDYCAARIQYAFGADYYWGQGTQVTVSS | low polyreactivity
